One block for each binder: values may come before it.
Experiments:
[1] = biological target: T1, SHR-SCR complex (SHR 59-531 with SCR 275-653) (Arabidopsis thaliana, UniProt Q9SZF7 59-531; Q9M384 275-653); assay: ITC
T1 sequence (looked up) 1: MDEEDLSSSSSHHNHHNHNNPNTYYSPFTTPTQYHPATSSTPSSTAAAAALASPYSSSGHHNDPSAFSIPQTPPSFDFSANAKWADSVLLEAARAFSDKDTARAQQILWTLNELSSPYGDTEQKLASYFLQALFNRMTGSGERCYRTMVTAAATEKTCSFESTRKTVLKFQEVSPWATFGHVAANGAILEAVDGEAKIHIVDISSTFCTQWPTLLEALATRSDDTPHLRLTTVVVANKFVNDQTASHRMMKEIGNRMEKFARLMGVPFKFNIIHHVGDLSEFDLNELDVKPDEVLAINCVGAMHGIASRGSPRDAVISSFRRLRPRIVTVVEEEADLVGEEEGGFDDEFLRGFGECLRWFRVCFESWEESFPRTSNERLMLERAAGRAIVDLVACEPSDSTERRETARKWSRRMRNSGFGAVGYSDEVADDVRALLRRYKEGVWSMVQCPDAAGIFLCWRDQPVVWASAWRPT
T1 sequence (looked up) 2: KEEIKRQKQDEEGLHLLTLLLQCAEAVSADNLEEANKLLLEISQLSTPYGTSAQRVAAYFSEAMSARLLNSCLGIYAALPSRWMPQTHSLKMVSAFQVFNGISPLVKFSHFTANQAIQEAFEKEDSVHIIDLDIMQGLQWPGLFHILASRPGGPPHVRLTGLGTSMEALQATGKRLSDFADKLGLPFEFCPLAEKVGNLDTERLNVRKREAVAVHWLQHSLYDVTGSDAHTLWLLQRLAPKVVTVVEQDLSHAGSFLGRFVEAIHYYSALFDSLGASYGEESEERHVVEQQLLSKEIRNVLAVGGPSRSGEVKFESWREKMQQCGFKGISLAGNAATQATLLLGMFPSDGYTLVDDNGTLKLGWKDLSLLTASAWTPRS

AUC = biological target: the molecule itself; assay: AUC

Kd [1]: 35.5 ± 11.2 nM
dH [1]: 2.59 ± 0.02 kcal/mol
stoichiometry N [1]: 0.81 ± 0.003
B1: MGP/IDD3 ZF3-ZF4 (residues 143-221) (domain or fragment, Arabidopsis thaliana, UniProt Q9ZWA6 143-221, looked up)
chain: EKKWKCEKCAKRYAVQSDWKAHSKTCGTREYRCDCGTIFSRRDSFITHRAFCDALAEETARLNAASHLKSFAATAGSNL

Kd [1]: 124 ± 81.7 nM
dH [1]: -1.29 ± 0.03 kcal/mol
stoichiometry N [1]: 0.6 ± 0.01
B2: JKD/IDD10 ZF3-ZF4 (residues 155-224) (domain or fragment, Arabidopsis thaliana, UniProt Q700D2 155-224, looked up)
chain: GEKKWKCEKCSKKYAVQSDWKAHAKTCGTREYKCDCGTLFSRKDSFITHRAFCDALTEEGARMSSLSNNN

B3: AtSCL3 (natural protein, Arabidopsis, UniProt Q9LPR8 1-482, looked up)
chain: MVAMFQEDNGTSSVASSPLQVFSTMSLNRPTLLASSSPFHCLKDLKPEERGLYLIHLLLTCANHVASGSLQNANAALEQLSHLASPDGDTMQRIAAYFTEALANRILKSWPGLYKALNATQTRTNNVSEEIHVRRLFFEMFPILKVSYLLTNRAILEAMEGEKMVHVIDLDASEPAQWLALLQAFNSRPEGPPHLRITGVHHQKEVLEQMAHRLIEEAEKLDIPFQFNPVVSRLDCLNVEQLRVKTGEALAVSSVLQLHTFLASDDDLMRKNCALRFQNNPSGVDLQRVLMMSHGSAAEARENDMSNNNGYSPSGDSASSLPLPSSGRTDSFLNAIWGLSPKVMVVTEQDSDHNGSTLMERLLESLYTYAALFDCLETKVPRTSQDRIKVEKMLFGEEIKNIISCEGFERRERHEKLEKWSQRIDLAGFGNVPLSYYAMLQARRLLQGCGFDGYRIKEESGCAVICWQDRPLYSVSAWRCRK
stoichiometry N (AUC): 2

Reference: paper PMC5639936 (Nature plants, 2017)
